Paper PMC9335285 (Proceedings of the National Academy of Sciences of the …, 2022)

Target: the molecule itself
Assay: cross-linking

B1: full-length Mycobacterium tuberculosis MmpL3 (natural protein)
chain: MFAWWGRTVYRYRFIVIGVMVALCLGGGVFGLSLGKHVTQSGFYDDGSQSVQASVLGDQVYGRDRSGHIVAIFQAPAGKTVDDPAWSKKVVDELNRFQQDHPDQVLGWAGYLRASQATGMATADKKYTFVSIPLKGDDDDTILNNYKAIAPDLQRLDGGTVKLAGLQPVAEALTGTIATDQRRMEVLALPLVAVVLFFVFGGVIAAGLPVMVGGLCIAGALGIMRFLAIFGPVHYFAQPVVSLIGLGIAIDYGLFIVSRFREEIAEGYDTETAVRRTVITAGRTVTFSAVLIVASAIGLLLFPQGFLKSLTYATIASVMLSAILSITVLPACLGILGKHVDALGVRTLFRVPFLANWKISAAYLNWLADRLQRTKTREEVEAGFWGKLVNRVMKRPVLFAAPIVIIMILLIIPVGKLSLGGISEKYLPPTNSVRQAQEEFDKLFPGYRTNPLTLVIQTSNHQPVTDAQIADIRSKAMAIGGFIEPDNDPANMWQERAYAVGASKDPSVRVLQNGLINPADASKKLTELRAITPPKGITVLVGGTPALELDSIHGLFAKMPLMVVILLTTTIVLMFLAFGSVVLPIKATLMSALTLGSTMGILTWIFVDGHFSKWLNFTPTPLTAPVIGLIIALVFGLSTDYEVFLVSRMVEARERGMSTQEAIRIGTAATGRIITAAALIVAVVAGAFVFSDLVMMKYLAFGLMAALLLDATVVRMFLVPSVMKLLGDDCWWAPRWARRLQTRIGLGEIHLPDERKRPVSNGRPARPPVTAGLVAARAAGDPRPPHDPTHPLAESPRPARSSPASSPELTPALEATAAPAAPSGASTTRMQIGSSTEPPTTRLAAAGRSVQSPASTPPPTPTPPSAPSAGQTRAMPLAANRSTDAAGDPAEPTAALPIIRSDGDDSEAATEQLNARGTSDKTRQRRRGGGALSAQDLLRREGRL
binding result: binds
